According to article PMC2929661:
Values joined by “and” are separate entries in the source; they are usually repeats but may differ in a detail not shown here. Equal values may be shown once. Read-outs that look alike come from different tables or passages of the source.

Assays:
Assay in all cases: SPR
[1] = target: Human angiostatin kringles 1–5 (K1–5) (human)
[2] = target: Human angiostatin kringles 1–5 (K1–5) (human); remark: listed apart in the source
[3] = target: Recombinant yeast F1-ATPase (F1-ATP synthase protein complex) (yeast) (UniProt P07251)
[4] = target: Recombinant yeast F1-ATPase (F1-ATP synthase protein complex) (yeast) (UniProt P07251); remark: listed apart in the source

Molecule | Kd [1] | Ka [2] | Kd [2] | koff [2] | kon [2] | IC50 [3] | IC50 [4]
Recombinant yeast F1-ATPase (F1-ATP synthase protein complex) (from UniProt P07251 36-545; P00830 34-511; P38077 34-311) | 130 to 237 nM | 6.5e+06 M⁻¹ and 5.1e+06 M⁻¹ | 154 nM and 137 nM and 195 nM | 0.0002 s⁻¹ and 0.00019 s⁻¹ | 1300 M⁻¹ s⁻¹ and 960 M⁻¹ s⁻¹ | – | –
Pigment epithelium-derived factor (PEDF), human recombinant (ligand) QNPASPPEEGSPDPDSTGALVEEEDPFFKVPVNKLAAAVSNFGYDLYRVRSSTSPTTNVLLSPLSVATALSALSLGAEQRTESIIHRALYYDLISSPDIHGTYKELLDTVTAPQKNLKSASRIVFEKKLRIKSSFVAPLEKSYGTRPRVLTGNPRLDLQEINNWVQAQMKGKLARSTKEIPDEISILLLGVAHFKGQWVTKFDSRKTSLEDFYLDEERTVRVPMMSDPKAVLRYGLDSDLSCKIAQLPLTGSMSIIFFLPLKVTQNLTLIEESLTSEFIHDIDRELKTVQAVLTVPKLKLSYEGEVTKSLQEMKLQSLFDSPDFSKITGKPIKLTQVEHRAGFEWNEDGAGTTPSPGLQPAHLTFPLDYHLNQPFIFVLRDTDTGALLFIGKILDPRGP | – | – | – | – | – | 11.8 nM | 17.3 nM
